According to patent US20200360435A1 (published 2020):

B1: TCR7-2 (TCR, V domains shown)
Valpha: KQEVTQIPAALSVPEGENLVLNCSFTDSAIYNLQWFRQDPGKGLTSLLLIQSSQREQTSGRLNASLDKSSGRSTLYIAASQPGDSATYLCAVSRGNARLMFGDGTQLVVKP
Vbeta: DTGVSQDPRHKITKRGQNVTFRCDPISEHNRLYWYRQTLGQGPEFLTYFQNEAQLEKSRLLSDRFSAERPKGSFSTLEIQRTEQGDSAMYLCASAEDRGEKLFFGSGTQLSVL
B2: TCR7-3 (TCR, V domains shown)
Valpha: KQEVTQIPAALSVPEGENLVLNCSFTDSAIYNLQWFRQDPGKGLTSLLLIQSSQREQTSGRLNASLDKSSGRSTLYIAASQPGDSATYLCAVSRGNNRLAFGKGNQVVVIP
Vbeta: DTGVSQDPRHKITKRGQNVTFRCDPISEHNRLYWYRQTLGQGPEFLTYFQNEAQLEKSRLLSDRFSAERPKGSFSTLEIQRTEQGDSAMYLCASSPDRADTQYFGPGTRLTVL

Target: HTLV-1 Tax peptide on HLA-A*24:02 (human)
Assay: multimer staining

Binder | binding result
B1 | recognises
B2 | recognises
